The source of these data is patent US20180155427A1 (Novartis, published 2018).

Residue numbers refer to the chain shown, from its start. Names may count otherwise.

The term Kd denotes the free concentration of one partner at which half of the binding sites on the other are occupied at equilibrium, for simple one-to-one binding. A low value points to tighter binding. As usually defined, the IC50 is the midpoint of a concentration-inhibition curve. Low readings indicate greater potency in that assay, high ones weaker potency in that assay.

Experiment [1] concerns the target T1, human PD-1 expressed on cells (human, UniProt Q15116 25-288).
T1 construct: whole, on cells; Treated as one molecule; also called PD-1 expressing Jurkat cells; human PD-1 transfected Jurkat cells
Nature of the experiment: rank among the 16 humanized clones by FACS binding data on PD-1-expressing cells.

For experiment [2], the target named is T1, human PD-1 expressed on cells. Nature of the experiment: rank among the 16 humanized clones in competition with Alexa 488-labeled murine mAb BAP049 on PD-1-expressing 300.19 cells, first experiment. How it is done:
(§1) Incubations with the mAb mixtures having different concentration ratios of test mAb to labeled mAb was at 4° C. for 30 min. Bound labeled murine mAb was then quantified using a FACS machine. The experiment was performed twice.

Experiment [3] shares this target. Put plainly: rank among the 16 humanized clones in competition with Alexa 488-labeled murine mAb BAP049 on PD-1-expressing 300.19 cells, second experiment. On the procedure: as §1
The target is the same in experiment [4]. Put plainly: FACS blocking assay on PD-1-expressing 300.19 cells; blocked ligand at constant concentration: PD-L1-huIgG1 Fc fusion protein (legend paragraph 211 names 'PD-L1-Ig and PD-L2-Ig' for FIG. 8A); bound ligand detected with PE anti-human IgG F(ab')2. How it is done: Incubation was at 4° C. for 30 min. Bound ligand fusion proteins were detected with PE-conjugated F(ab′)2 fragment of goat anti-human IgG which doesn't recognize IgG4 mAbs (Southern Biotech 2043-09), and flow cytometry.

Experiment [5] has the same target. Nature of the experiment: FACS competition binding on PD-1 expressing Jurkat cells; competitor: fluorescently labeled murine mAb BAP049; MFI of bound labeled mAb. On the procedure:
The concentration of the murine mAb was determined by OD280 measurement, whereas the chimeric mAb concentrations in supernatants were determined with an ELISA using an IgG4 standard.

The target of experiment [6] is human PD-1-Ig fusion protein (human, UniProt Q15116 25-167). Put plainly: ELISA. Background: An ELISA detects its analyte on a solid surface through an enzyme-linked reagent.
human PD-1-Ig fusion protein, sequence (Q15116 25-167): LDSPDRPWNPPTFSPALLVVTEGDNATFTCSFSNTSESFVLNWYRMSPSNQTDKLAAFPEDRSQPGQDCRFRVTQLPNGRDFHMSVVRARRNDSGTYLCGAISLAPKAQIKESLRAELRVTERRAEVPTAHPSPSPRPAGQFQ
Experiment [7] has as its target T2, cynomolgus PD-1 expressed on cells (cynomolgus, UniProt B0LAJ3 25-288).
T2 construct: also called cynomolgus T cells; cells transfected with cynomolgus PD-1
Nature of the experiment: FACS on cynomolgus T cells.

The target of experiment [8] is T1, human PD-1 expressed on cells. Put plainly: FACS on human PD-1 transfected Jurkat cells.
In experiment [9] the target is T2, cynomolgus PD-1 expressed on cells. Nature of the experiment: FACS on cells transfected with cynomolgus PD-1.
The target of experiment [10] is T1, human PD-1 expressed on cells. Put plainly: competition binding assay on human PD-1-expressing 300.19 cells, competitor PD-L1; competitor PD-L1.
For experiment [11] the target is unchanged. Put plainly: competition binding assay on human PD-1-expressing 300.19 cells, competitor PD-L2; competitor PD-L2.

T1 sequence (Q15116 25-288): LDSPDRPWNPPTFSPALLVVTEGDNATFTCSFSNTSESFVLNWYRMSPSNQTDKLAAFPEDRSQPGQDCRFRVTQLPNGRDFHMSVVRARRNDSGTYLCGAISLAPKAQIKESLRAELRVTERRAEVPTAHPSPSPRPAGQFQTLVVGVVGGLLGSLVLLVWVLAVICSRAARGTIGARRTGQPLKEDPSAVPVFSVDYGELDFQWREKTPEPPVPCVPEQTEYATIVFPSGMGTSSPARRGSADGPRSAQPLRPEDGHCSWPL
T2 sequence (B0LAJ3 entry or part of it limits assumed): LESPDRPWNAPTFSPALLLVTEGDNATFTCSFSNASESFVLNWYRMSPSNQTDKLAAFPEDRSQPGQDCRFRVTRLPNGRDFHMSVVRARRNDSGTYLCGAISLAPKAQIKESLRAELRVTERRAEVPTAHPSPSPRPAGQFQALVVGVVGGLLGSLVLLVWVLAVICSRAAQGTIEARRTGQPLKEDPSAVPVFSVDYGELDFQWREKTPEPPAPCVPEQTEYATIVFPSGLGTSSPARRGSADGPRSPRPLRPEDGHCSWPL

B1: humanized mAb BAP049-hum10 (antibody, human IgG4 S228P, kappa)
heavy: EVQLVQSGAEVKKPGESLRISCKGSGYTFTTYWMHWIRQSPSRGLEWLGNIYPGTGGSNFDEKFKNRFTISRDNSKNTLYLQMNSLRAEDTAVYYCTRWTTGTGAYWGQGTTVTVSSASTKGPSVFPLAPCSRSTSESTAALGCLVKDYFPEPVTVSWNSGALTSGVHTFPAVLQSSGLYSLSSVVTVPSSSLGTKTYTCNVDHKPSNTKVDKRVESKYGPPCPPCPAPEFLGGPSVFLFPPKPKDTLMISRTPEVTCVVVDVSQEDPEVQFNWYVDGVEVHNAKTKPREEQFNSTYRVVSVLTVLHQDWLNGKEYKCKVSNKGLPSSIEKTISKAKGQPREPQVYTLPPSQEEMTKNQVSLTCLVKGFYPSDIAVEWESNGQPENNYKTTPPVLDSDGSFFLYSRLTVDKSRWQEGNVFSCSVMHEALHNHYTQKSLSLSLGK
light: EIVLTQSPATLSLSPGERATLSCKSSQSLLDSGNQKNFLTWYQQKPGQAPRLLIYWASTRESGVPSRFSGSGSGTDFTFTISSLEAEDAATYYCQNDYSYPYTFGQGTKVEIKRTVAAPSVFIFPPSDEQLKSGTASVVCLLNNFYPREAKVQWKVDNALQSGNSQESVTEQDSKDSTYSLSSTLTLSKADYEKHKVYACEVTHQGLSSPVTKSFNRGEC
notes: Human IgG4(S228P), human kappa; tested as concentrated supernatant of transiently transfected CHO cells; also called Clone No. 10
Take B1: the “Ranking FACS data” value in experiment [1] is 7. Moreover, the “Competition Binding 1st exp. (rank)” value in [2] stood at 6. Besides, the “Competition Binding 2nd exp. (rank)” value in experiment [3] is over 4. In experiment [4], the “IC50 (read off the curve)” value was about 1 µg/mL.

B2: chimeric antibody BAP049-chi (Ser) (antibody, human IgG4 S228P, kappa, V domains shown)
VH: QVQLQQSGSELVRPGASVKLSCKASGYTFTTYWMHWVRQRPGQGLEWIGNIYPGTGGSNFDEKFKNRTSLTVDTSSTTAYMHLASLTSEDSAVYYCTRWTTGTGAYWGQGTTVTVSS
VL: DIVMTQSPSSLTVTAGEKVTMSCKSSQSLLDSGNQKNFLTWYQQKPGQPPKLLIFWASTRESGVPDRFTGSGSVTDFTLTISSVQAEDLAVYYCQNDYSYPSTFGQGTKVEIKR
notes: also called Chi mAb (Ser)
With B2, the binding result in experiment [5] was “binds”.

B3: murine anti-PD-1 monoclonal antibody BAP049 (antibody, V domains shown)
VH: B2 VH with T112L, S117A
VL: DIVMTQSPSSLTVTAGEKVTMSCKSSQSLLDSGNQKNFLTWYQQKPGQPPKLLIFWASTRESGVPDRFTGSGSVTDFTLTISSVQAEDLAVYYCQNDYSYPCTFGGGTKLEIK
notes: the murine constant regions are not; also called murine mAb BAP049; Mu mAb
B3: the Kd amounted to 0.04 nM in experiment [6], 0.4 nM in experiment [7], 0.06 nM in experiment [8] and 0.6 nM in experiment [9]. The IC50 came to 0.3 nM in experiment [10] and 0.9 nM in experiment [11]. In experiment [4], the “IC50 (read off the curve)” value is about 0.6 µg/mL.

B4: chimeric antibody BAP049-chi (Tyr) (antibody, human IgG4 S228P, kappa, V domains shown)
VH: B2 VH
VL: B2 VL with S102Y
notes: Murine variable regions, human IgG4(S228P), human kappa; also called BAP049-chi-Y; Chi mAb (Tyr)
Take B4: the “IC50 (read off the curve)” value in experiment [4] was about 0.8 µg/mL.

B5: humanized mAb BAP049-hum01 (antibody, human IgG4 S228P, kappa, V domains shown)
VH: EVQLVQSGAEVKKPGESLRISCKGSGYTFTTYWMHWVRQATGQGLEWMGNIYPGTGGSNFDEKFKNRVTITADKSTSTAYMELSSLRSEDTAVYYCTRWTTGTGAYWGQGTTVTVSS
VL: EIVLTQSPATLSLSPGERATLSCKSSQSLLDSGNQKNFLTWYQQKPGQAPRLLIYWASTRESGVPSRFSGSGSGTEFTLTISSLQPDDFATYYCQNDYSYPYTFGQGTKVEIKR
notes: Human IgG4(S228P), human kappa; tested as concentrated supernatant of transiently transfected CHO cells; also called Clone No. 01
Take B5: the “Ranking FACS data” value in [1] amounted to 2. Moreover, in experiment [2], the “Competition Binding 1st exp. (rank)” value was 7. Also, the “Competition Binding 2nd exp. (rank)” value in [3] came to 2. For the same molecule, in [4], the “IC50 (read off the curve)” value was about 1 µg/mL.

B6: humanized mAb BAP049-hum05 (antibody, human IgG4 S228P, kappa, V domains shown)
VH: B5 VH
VL: B5 VL with Q48K, R51K, E76D, L79F, D87E, F89I
notes: Human IgG4(S228P), human kappa; tested as concentrated supernatant of transiently transfected CHO cells; also called Clone No. 05
Regarding B6, the “Ranking FACS data” value in experiment [1] was found to be 5. In experiment [2], the “Competition Binding 1st exp. (rank)” value was 5. For the same molecule, in [3], the “Competition Binding 2nd exp. (rank)” value was over 4. Also, the “IC50 (read off the curve)” value in [4] is about 1 µg/mL.
